Data on two molecules can be found in US20060073571A1 (CORNELL RESEARCH FOUNDATION, published 2006).

First the molecules themselves.
B1: human chorionic gonadotropin (hCG), highly purified, CR-125, NICHD (ligand)
chain 1: not shown
chain 2: SKEPLRPRCRPINATLAVEKEGCPVCITVNTTICAGYCPTMTRVLQGVLPALPQVVCNYRDVRFESIRLPGCPRGVNPVVSYAVALSCQCALCRRSTTDCGGPKDHPLTCDDPRFQDSSSSKAPPPSLPSPSRLPGPSDTPILPQ

Test [1] deals with recombinant chimeric hLH-R-hCG-β fusion protein (full-length human lutropin hormone receptor, Arg-Ser linker, … (human)). In words: cell-based or functional assay.
Test [2] addresses B1. Put plainly: displacement of biotinylated-hCG by unlabeled hCG on transfected Sf9 cells, HRP-streptavidin ELISA. On the procedure:
A competitive binding assay was performed to determine whether hCG would bind to the chimeric protein containing both hLH-R-ECD and hCG-β-CTP. After 24 hr of transfection with recombinant baculovirus, Sf9 insect cells were incubated for 24 hr at 27° C. with 20 ng/μl of biotinylated-hCG and increasing concentrations of unlabeled hCG as the competitor. The Sf9 cells infected with the recombinant baculovirus containing ECD of LH-R alone was set up as the control. The binding of biotinylated-hCG on the surface of the Sf9 insect cells was examined by ELISA using horseradish peroxidase (HRP)-streptavidin conjugate.

Consider B1, for which the “intracellular cAMP, increase over baseline” value in test [1] was roughly 6 fold.

B2: recombinant chimeric protein hLH-R-ECD-hCG-β-CTP (extracellular domain of hLH-R, Gly-Thr linker, carboxyl terminal peptide of hCG-β) (receptor)
chain: LPRALREALCPEPCNCVPDGALRCPGPTAGLTRLSLAYLPVKVIPSQAFRGLNEVIKIEISQIDSLERIEANAFDNLLNLSEILIQNTKNLRYIEPGAFINLPRLKYLSICNTGIRKFPDVTKVFSSESNFILEICDNLHITTIPGNAFQGMNNESVTLKLYGNGFEEVQSHAFNGTTLTSLELKENVHLEKMHNGAFRGATGPKTLDISSTKLQALPSYGLESIQRLIATSSYSLKKLPSRETFVNLLEATLTYPSHCCAFRNLPTKEQNFSHSISENFSKQCESTVRKVSNKTLYSSMLAESELSGWDYEYGFCLPKTPRCAPEPGTLTCDDPRFQDSSSSKAPPPSLPSPSRLPGPSDTPILPQ
notes: The vector was pBlueBac4.5/V5-His; also called chimera 3; hLH-R-ECD/hCG-CTP
As for B2, the binding result in test [2] is on record as “binds”.
